Laboratory results published in the nanobody polyreactivity screen of Harvey et al. (2022).

Experiment: yeast display, Sf9 membrane polyspecificity reagent, FACS + sequencing; frameworks hold sequencing errors
Summary of the method: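 Sorting gates, low and high (top ~1%), were placed on anti-HA fluorescence to track expression and on streptavidin fluorescence to track reagent binding. A clone's polyreactivity label is taken from the gate it came out of. The reagent was 10% biotinylated, detergent-solubilized Sf9 membrane, applied for 1 hour at 4 °C to galactose-induced yeast display cells.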

Row | Sequence | polyreactivity (PSR sort gate)
1 | QVQLVESGGGLVQAGGSLRLSCAASGRIFHVNAMGWYRQAPGKERELVAAISTSGGRTYYADSVKGRFTISRDNAKNTVYLQLNSLKPEVTAVYYCAAVSRAPGLRYDYWGQGTQVTVSS | high polyreactivity
2 | QVQLVESGGGLVQAGGSLRLSCAASGRIFHYNAMGWYRQAPGKERELVAAISTGGSTNYADSVKGRFTISRDNAKNTVYLQMNSLKPEDTAVYYCAADHPVTYPTTKFDYWGQGTQVTVSS | low polyreactivity
3 | QVQLVESGGGLVQAGGSLRLSCAASGRIFHYYAMGWYRQAPGIERELVAAIRYSGGRTYYADSVKGRFTISRDNAKNTVYLQMNSLKPEDTAFYYCNAVPYVYKTITGDDYWGQGTQVTVSS | high polyreactivity
4 | QVQLVESGGGLVQAGGSLRLSCAASGRIFHYYAMGWYRQAPGKEWELVAAISTSGGSTYYADSVKGRFTISRDNANNTVYIQMNSLKPEDTAVYYCAAVLPRYRRFDYWGQGTQVTVSS | high polyreactivity
5 | QVQLVESGGGLVQAGGSLRLSCAASGRIFIGYAMGWYRQAPGKERELVAGISQRGGRTYYADSVKGRFTISRDNAKNTVYLQMNSLKPEDTAVYYCNKRFSLGYRGGYWGQGTQVTVSS | high polyreactivity
6 | QVQLVESGGGLVQAGGSLRLSCAASGRIFINNAMGWYRQAPGKEREFVAAITSGGRTYYADSVKGRFTISRDNAKNTVYLQMNSLKPEDTAVYYCAARYYRQYTRHYGYGYWGQGTQVTVSS | high polyreactivity
7 | QVQLVESGGGLVQAGGSLRLSCAASGRIFIPYALGWYRQAPGKERELVAAISYRGGSTYYADSVKGRFTISRDNAKNTVYLQMNSLKPEDTAVYYCANYDYWGQGTQVTVSS | high polyreactivity
8 | QVQLVESGGGLVQAGGSLRLSCAASGRIFIRNAMGWYRQAPGKERELVAAITQSGGSTYYADSVKGRFTISRDNAKNTVYLQMNSLKPEDTAVYYCAADGDNPYLHEEDYWGQGTQVTVSS | high polyreactivity
9 | QVQLVESGGGLVQAGGSLRLSCAASGRIFIRNAMGWYRQAPGTERELVAAITSDGITYYADSVKGRFTISRDNATNTVYLQMNSLKPEDTAVYYCAKVGGWFSNLFIPRYREYNYWGQGTQVTVSP | low polyreactivity
10 | QVQLVESGGGLVQAGGSLRLSCAASGRIFIRNTMVWYRQAPGKERELVADISWRGGSTYYADSVKGRFTISRDNAKNTVYLEMNSLKPEDTAVYYSAAVVRSPAYDYWGQGTQVTVSS | high polyreactivity
11 | QVQLVESGGGLVQAGGSLRLSCAASGRIFIRYAMGWYRQAPGKERELVASISRNGGTTYYADSVKGRFTISRDNAQNTVYLQMNSLKPEDTAVYYCNTVHRSVDKAGYDYWGQGTQVTVSS | high polyreactivity
12 | QVQLVESGGGLVQAGGSLRLSCAASGRIFISYTMGLYRHAPGKERELVAGIDSSGTSTYYADSVKGRFTISRDNAKNTVYLQMNRLKPEDTAVYYCIVVANWKDTSTELDYWGQGTQVTVSS | low polyreactivity
13 | QVQLVESGGGLVQAGGSLRLSCAASGRIFIYNAMGWYRQAPGKEREFVAAISSSGGSTYYADSVKGRFTISRDNAKNTVYLQMNSLKPEDTAVYYCAAGGWPYSGGLFFQPNYDYWGQGTQVTVSS | low polyreactivity
14 | QVQLVESGGGLVQAGGSLRLSCAASGRIFIYNVMGWYRQAPGKERELVATISTGGTTNYADSVKGRFTISRDNAKNTVYLQMNSLKPEDTAVYYCNRGSGYWYLPAVKYDHWGQGTQVTVSS | low polyreactivity
15 | QVQLVESGGGLVQAGGSLRLSCAASGRIFIYYTMGWYRQAPGKEREFVAAITYSGGSTRYADSVKGRFTISRDNAKNTVYLQMNSLKPEDTAVYYCAAKFSVRRGFDYWGQGTQVTVSS | low polyreactivity
16 | QVQLVESGGGLVQAGGSLRLSCAASGRIFKAYAMGWSRQAPGKERELVAAITSTGSTYYADSVKGRFTISRDNAKNTVYLQMNSLKPEDTAVYYCNAVRYLEYDWGQGTQVTVSS | high polyreactivity
17 | QVQLVESGGGLVQAGGSLRLSCAASGRIFKGYAIGWYRLAPGKERELVASITWRGGTTYYADSVKGRFTISRDNAKNTVYLQMNSLKPEDTAVYYCATTRYPRSYQEFGYWGQGTQVTVSS | high polyreactivity
18 | QVQLVESGGGLVQAGGSLRLSCAASGRIFKIYAMGWYRQAPGKERELVASISWSGGRTYYADSVKGRFTISRDNAKNTVYLQMNSLKPEDTAVYYCAATFSYSSYIYDYWGQGTQVTVSS | high polyreactivity
19 | QVQLVESGGGLVQAGGSLRLSCAASGRIFKIYAMGWYRQAQGKERELVAAISRGVRTYYADSVKGRFTISRDNAKNTVYLQMNSLKPEDTAVYYCAADLLISPEFYYWGQGTQVTVSS | high polyreactivity
20 | QVQLVESGGGLVQAGGSLRLSCAASGRIFKKNAMGWYRQAPGKERELVADINWTGGSTYYADSVKGRFTISRDYAKNTVDLQMNSLKPEDTAVYYCAVGVYPSYRGTTFSTRRDYWGQGTQVTVSS | low polyreactivity
21 | QVQLVESGGGLVQAGGSLRLSCAASGRIFKLYAMGWYRQAPGKERELVAAITRRGGSTSYADSVKGRFTISRDNAKNTVYLQMNSLKPEDTAVYYCNARSSETWHGDYWGQGTQVTVSS | high polyreactivity
22 | QVQLVESGGGLVQAGGSLRLSCAASGRIFKNNAMGWYRQAPGKEREFVAAISSIGGRTYYADSVKGRFTISRDNAKHTVYLQMNSLKPEDTAVYYCAARGYTGGLWYDYWGQRTQVTVSS | high polyreactivity

Row | Sequence | polyreactivity (PSR sort gate)
23 | QVQLVESGGGLVQAGGSLRLSCAASGRIFKPNAMGWYRQAPGKERELVASITSRGTSTYYADSVKGRFTISRDNAKNTVYLQMNSLKPEDTAVYYCAARPIHYPPYYYWGQGTQVTVSS | high polyreactivity
24 | QVQLVESGGGLVQAGGSLRLSCAASGRIFKPYAMGWYRQAPGKERELVASISRRGGSTYYADSVKGRFTISRDNAKNTVYLQMNSLKPEDTAVYYCNASGTYISLGYDYWGQGTQVTVSS | high polyreactivity
25 | QVQLVESGGGLVQAGGSLRLSCAASGRIFKRNAMGWYRQAPGKDTELVAGISSSGGSTYYADSVKGRFTISRDNAKNTVYLQMNSLKPEDTAVYYCAAVGYGLRPSYDYWGQGTQVTVSS | high polyreactivity
26 | QVQLVESGGGLVQAGGSLRLSCAASGRIFKRNAMGWYRQAPGKERELVAAISSRVGRTYYADSVKGRFTISRDNAKNTVYLQMNSLKPEDTAVYYCAADTYTYYDYDYWGQGTQVTVSS | high polyreactivity
27 | QVQLVESGGGLVQAGGSLRLSCAASGRIFKRYDMGWYRQAPGKERELVAAINRSGGSTYYADSVKGRFTISRDNAKNTVYLQMNSLKPEDTAVYYCAARYRYDGRYDYWGQGTQVTVSS | high polyreactivity
28 | QVQLVESGGGLVQAGGSLRLSCAASGRIFKRYTMGWYRQAPGKERELVAGITFSGGSTYYADSVKGRFTISRDNAKNTVYLQMNSLKPEDTAVYDCNARVPPQGWGPWKAFDYWGQGTQVTVSS | low polyreactivity
29 | QVQLVESGGGLVQAGGSLRLSCAASGRIFKSYVMGWYRQAPGKERELVAAISITGGSTYYADSVKGRFTISRDNAKNTVYLQMNSLKPEDTAVYYCAAEWFGSVQPAYDYWGQGTQVTVSS | high polyreactivity
30 | QVQLVESGGGLVQAGGSLRLSCAASGRIFKTNAMGWDRQGPGKERELVAGITGRSGSSYYADSVKGRFTISRDIAMNTVYLQMNSLKPEDTAVYYCAAPLYGRYSYGYWGQGNQVTVSS | high polyreactivity
31 | QVQLVESGGGLVQAGGSLRLSCAASGRIFKVNAMGWYRQAPGKERELVAAITRGGRTYADSVKGRFTISRDNAKNTVYLQMNSLKPEDTAVYYCAADVLEGWFKRYYYWGQGTQVTVSS | high polyreactivity
32 | QVQLVESGGGLVQAGGSLRLSCAASGRIFKVYAMGWYRQAPGKERELVAAITSRGGSTYYADSVKGRFTISRDNAKNTVYLQMNSLKPEDTAVYYCAAARGLPSNKYYYWGQGTQVTVSS | high polyreactivity
33 | QVQLVESGGGLVQAGGSLRLSCAASGRIFKVYAMGWYRQAPGKERELVATISRGGSTYYADSVKGRFTISRDNAKNTVYLQMNSLKPEDTAVYYCAKQRERYYWFGAWSYDYWGQGTQLTVSS | low polyreactivity
34 | QVQLVESGGGLVQAGGSLRLSCAASGRIFKYHAMGWYRQAPGKERELVAAITWGGGGTYYADSVKGRFTISRDNAKNTVYLQMNSLIPEDTAVYYCNTERWGTGKLRYNYWGPGTQVTVSS | low polyreactivity
35 | QVQLVESGGGLVQAGGSLRLSCAASGRIFKYNAMGWYRQAPGKEREFVARITSGGRTYYADSVKGRFTISRDNAKNTVYLQMNSLKPEDTAVYYCNAEDVRYWVRGYRMGYWGQGTQVTVSS | high polyreactivity
36 | QVQLVESGGGLVQAGGSLRLSCAASGRIFKYYAKGWYRQAPGKERELVAAISWSGGRTYYADSVKGRFTISRDNAKTTVYLQMNSLKPEDTAVYDCNAASLRYSYTLFDSWGQGTQVTVSS | high polyreactivity
37 | QVQLVESGGGLVQAGGSLRLSCAASGRIFKYYAMGWYRQAPGKERELVAAISRSGGSTYYADSVKGRFSISRDNAKNTVYLQMNSLKPEDTAVYYCAAGYKQATYDRIRTAYGYWGQGTQVTVSS | high polyreactivity
38 | QVQLVESGGGLVQAGGSLRLSCAASGRIFKYYAMGWYRQAPGKERELVAAITWSGGNTYYADSVKGRFTISRDNAKNTVYLQMNSLKPEDTAVYYCAREVYYPIRQYNYWGQGTQVTVSS | high polyreactivity
39 | QVQLVESGGGLVQAGGSLRLSCAASGRIFKYYTMGWSRQAPGKERELVAAISRDDSTNYADSVKGRFTISRDNAKNTVYLQMNSLKPEDTAVYYCAKGYHQYAGFYYWGQGTQVTVSS | high polyreactivity
40 | QVQLVESGGGLVQAGGSLRLSCAASGRIFKYYVMGWYRQAPGKEREFVAAISGRGGRTYYADSVKGRFTISRDNAKNTVYLQMNSLKPEDTAVYYCATERQERGPLGYNYWGLGTQVTVSS | high polyreactivity
41 | QVQLVESGGGLVQAGGSLRLSCAASGRIFKYYVMGWYRQAPGKESELVAAISSGSGSTYYADSVKGRFTISRDNAKNTVYLQMNSLKPEDTAVYYCNALSSWRRTYGSRYDYWGQGTQVTVSS | high polyreactivity
42 | QVQLVESGGGLVQAGGSLRLSCAASGRIFLDNTMGGYRQATGKERELVATISSGASTNYADSVKGRFTISRDNAKNTVYLQMNSLKPEDTGVYYCNARVGGYPLWYKKYYYWGQGTQVNVSS | low polyreactivity
43 | QVQLVESGGGLVQAGGSLRLSCAASGRIFLFYAMGWYRQAPGKERELVAAISIGSTDYADSVKGRFTISRDNAKNTVYLQMNSLKPEDTAVYYCAADFIITYDEYDYWGQGTQVTVSS | high polyreactivity
